Experiments:
[1] = molecular target: T1, BAP070-01 (human-mouse chimeric MAb 583); assay: C-ELISA, BAP070-01 supernatant on Protein G; competitor NT-biotin hepcidin-25; four parameter fit
T1 construct: used as CHO cell supernatant; also called BAP070-1
Description: The plate was washed with TBST and one (1) ng/well of NT-biotin hepcidin-25 was mixed with different amounts (0-100 ng) of synthetic hepcidin-25 standard in TBST, 0.25% BLOTTO and added onto the plate to bind competitively. The plate was washed with TBST and SA-HRP (1:2500) added and allowed to bind for 1 hour.
The plate was washed with TBST and […] substrate added and the reaction stopped after 10 minutes with stop solution. Absorbance at 450 nm was measured on a spectrophotometer.

[2] = molecular target: T1, BAP070-01 (human-mouse chimeric MAb 583); assay: C-ELISA on goat anti-human Fc coat, hepcidin titrated against a labelled tracer not named for this figure
BAP070-hum01 [3] = molecular target: T2, BAP070-hum01; assay: as above
T2 construct: Expressed as soluble IgG1 in CHO cells, tested as supernatant; The entries stop inside FR4 (...WGQG / ...FG); also called humanized hit 1
T2 sequence (VH, as listed by the source, chain 1 of 2): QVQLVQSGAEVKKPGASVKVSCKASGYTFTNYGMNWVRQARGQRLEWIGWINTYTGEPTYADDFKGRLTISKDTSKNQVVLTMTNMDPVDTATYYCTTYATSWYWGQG
T2 sequence (VL, as listed by the source, chain 2 of 2): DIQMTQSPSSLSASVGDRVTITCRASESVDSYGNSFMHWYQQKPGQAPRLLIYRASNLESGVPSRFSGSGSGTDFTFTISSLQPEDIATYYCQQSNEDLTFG

BAP070-hum02 [4] = molecular target: T3, BAP070-hum02; assay: as above
T3 construct: Expressed as soluble IgG1 in CHO cells, tested as supernatant; The entries stop inside FR4
T3 sequence (VL, as listed by the source, chain 2 of 2): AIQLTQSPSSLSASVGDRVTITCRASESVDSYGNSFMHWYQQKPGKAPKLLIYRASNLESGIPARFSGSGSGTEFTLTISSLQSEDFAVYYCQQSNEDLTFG

BAP070-hum03 [5] = molecular target: T4, BAP070-hum03; assay: as above
T4 construct: Expressed as soluble IgG1 in CHO cells, tested as supernatant; The entries stop inside FR4
T4 sequence (VH, as listed by the source, chain 1 of 2): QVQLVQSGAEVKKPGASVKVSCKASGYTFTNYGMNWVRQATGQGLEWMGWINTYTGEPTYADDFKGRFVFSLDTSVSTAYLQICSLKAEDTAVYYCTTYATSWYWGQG
T4 sequence (VL, as listed by the source, chain 2 of 2): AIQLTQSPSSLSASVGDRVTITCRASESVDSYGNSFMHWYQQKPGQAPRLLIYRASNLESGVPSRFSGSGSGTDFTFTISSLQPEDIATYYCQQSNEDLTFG

BAP070-hum04 [6] = molecular target: T5, BAP070-hum04; assay: as above
T5 construct: Expressed as soluble IgG1 in CHO cells, tested as supernatant; The entries stop inside FR4
T5 sequence (VL, as listed by the source, chain 2 of 2): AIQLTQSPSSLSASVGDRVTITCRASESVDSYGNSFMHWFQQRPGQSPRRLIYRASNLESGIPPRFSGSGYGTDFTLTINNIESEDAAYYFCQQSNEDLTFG

BAP070-hum05 [7] = molecular target: T6, BAP070-hum05; assay: as above
T6 construct: Expressed as soluble IgG1 in CHO cells, tested as supernatant; The entries stop inside FR4
T6 sequence (VH, as listed by the source, chain 1 of 2): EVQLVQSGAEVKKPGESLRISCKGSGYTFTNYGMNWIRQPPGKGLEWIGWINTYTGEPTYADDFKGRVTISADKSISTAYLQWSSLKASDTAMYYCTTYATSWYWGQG

BAP070-hum06 [8] = molecular target: T7, BAP070-hum06; assay: as above
T7 construct: Expressed as soluble IgG1 in CHO cells, tested as supernatant; The entries stop inside FR4

[9] = molecular target: T1, BAP070-01 (human-mouse chimeric MAb 583); assay: C-ELISA: goat anti-human Fc coated plate, antibody captured (30 ng/well per title of FIG. 20D), unlabelled hepcidin titrated (ng/well per axis of FIG. 20D) against a labelled tracer not named for this figure; OD = tracer left on the antibody
BAP070-hum01 [10] = molecular target: T2, BAP070-hum01; assay: as above
BAP070-hum02 [11] = molecular target: T3, BAP070-hum02; assay: as above
BAP070-hum03 [12] = molecular target: T4, BAP070-hum03; assay: as above
BAP070-hum04 [13] = molecular target: T5, BAP070-hum04; assay: as above
BAP070-hum05 [14] = molecular target: T6, BAP070-hum05; assay: as above
BAP070-hum06 [15] = molecular target: T7, BAP070-hum06; assay: as above
BAP070-hum01 [16] = molecular target: T2, BAP070-hum01; assay: C-ELISA: goat anti-human Fc coated plate, antibody captured, unlabelled hepcidin titrated against a labelled tracer not named for this figure; the EC50 row has 7 cells under 8 columns and is assigned in order to the 7 antibodies with human Fc

T1 sequence (VH, as listed by the source, chain 1 of 2): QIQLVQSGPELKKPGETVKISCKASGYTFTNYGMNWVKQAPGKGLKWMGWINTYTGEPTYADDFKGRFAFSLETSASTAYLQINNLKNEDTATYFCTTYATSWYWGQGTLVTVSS
T1 sequence (VL, as listed by the source, chain 2 of 2): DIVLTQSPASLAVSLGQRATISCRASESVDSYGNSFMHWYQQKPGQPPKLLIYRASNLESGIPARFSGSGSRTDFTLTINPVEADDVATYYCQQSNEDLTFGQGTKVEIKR

B1: Human hepcidin peptide (hepcidin-25) (peptide)
peptide: DTHFPICIFCCGCCHRSKCGMCCKT
notes: Synthetic 25 aa peptide; also called hep-25; Hep-25
EC50 [1]: 0.054 µg/mL | IC50 (read off the curve) [2]: ~2 ng/well | IC50 (read off the curve) (BAP070-hum01 [3]): ~2 ng/well | IC50 (read off the curve) (BAP070-hum02 [4]): ~2 ng/well | IC50 (read off the curve) (BAP070-hum03 [5]): ~2 ng/well | IC50 (read off the curve) (BAP070-hum04 [6]): ~2 ng/well | IC50 (read off the curve) (BAP070-hum05 [7]): ~2 ng/well | IC50 (read off the curve) (BAP070-hum06 [8]): ~2 ng/well | OD450 at 0.000 ng/well hepcidin [9]: 2.88 | OD450 at 0.137 ng/well hepcidin [9]: 2.77 | OD450 at 0.412 ng/well hepcidin [9]: 2.65 | OD450 at 1.235 ng/well hepcidin [9]: 1.77 | OD450 at 3.704 ng/well hepcidin [9]: 0.826 | OD450 at 11.111 ng/well hepcidin [9]: 0.334 | OD450 at 33.333 ng/well hepcidin [9]: 0.125 | OD450 at 100.000 ng/well hepcidin [9]: 0.0442 | OD450 at 0.000 ng/well hepcidin (BAP070-hum01 [10]): 0.408 | OD450 at 0.137 ng/well hepcidin (BAP070-hum01 [10]): 0.424 | OD450 at 0.412 ng/well hepcidin (BAP070-hum01 [10]): 0.415 | OD450 at 1.235 ng/well hepcidin (BAP070-hum01 [10]): 0.311 | OD450 at 3.704 ng/well hepcidin (BAP070-hum01 [10]): 0.166 | OD450 at 11.111 ng/well hepcidin (BAP070-hum01 [10]): 0.0849 | OD450 at 33.333 ng/well hepcidin (BAP070-hum01 [10]): 0.0336 | OD450 at 100.000 ng/well hepcidin (BAP070-hum01 [10]): 0.0144 | OD450 at 0.000 ng/well hepcidin (BAP070-hum02 [11]): 0.812 | OD450 at 0.137 ng/well hepcidin (BAP070-hum02 [11]): 0.844 | OD450 at 0.412 ng/well hepcidin (BAP070-hum02 [11]): 0.814 | OD450 at 1.235 ng/well hepcidin (BAP070-hum02 [11]): 0.539 | OD450 at 3.704 ng/well hepcidin (BAP070-hum02 [11]): 0.279 | OD450 at 11.111 ng/well hepcidin (BAP070-hum02 [11]): 0.125 | OD450 at 33.333 ng/well hepcidin (BAP070-hum02 [11]): 0.0475 | OD450 at 100.000 ng/well hepcidin (BAP070-hum02 [11]): 0.0189 | OD450 at 0.000 ng/well hepcidin (BAP070-hum03 [12]): 2.13 | OD450 at 0.137 ng/well hepcidin (BAP070-hum03 [12]): 2.1 | OD450 at 0.412 ng/well hepcidin (BAP070-hum03 [12]): 1.96 | OD450 at 1.235 ng/well hepcidin (BAP070-hum03 [12]): 1.48 | OD450 at 3.704 ng/well hepcidin (BAP070-hum03 [12]): 0.653 | OD450 at 11.111 ng/well hepcidin (BAP070-hum03 [12]): 0.281 | OD450 at 33.333 ng/well hepcidin (BAP070-hum03 [12]): 0.0983 | OD450 at 100.000 ng/well hepcidin (BAP070-hum03 [12]): 0.0359 | OD450 at 0.000 ng/well hepcidin (BAP070-hum04 [13]): 0.433 | OD450 at 0.137 ng/well hepcidin (BAP070-hum04 [13]): 0.446 | OD450 at 0.412 ng/well hepcidin (BAP070-hum04 [13]): 0.415 | OD450 at 1.235 ng/well hepcidin (BAP070-hum04 [13]): 0.301 | OD450 at 3.704 ng/well hepcidin (BAP070-hum04 [13]): 0.148 | OD450 at 11.111 ng/well hepcidin (BAP070-hum04 [13]): 0.0719 | OD450 at 33.333 ng/well hepcidin (BAP070-hum04 [13]): 0.0303 | OD450 at 100.000 ng/well hepcidin (BAP070-hum04 [13]): 0.0135 | OD450 at 0.000 ng/well hepcidin (BAP070-hum05 [14]): 0.972 | OD450 at 0.137 ng/well hepcidin (BAP070-hum05 [14]): 0.917 | OD450 at 0.412 ng/well hepcidin (BAP070-hum05 [14]): 0.88 | OD450 at 1.235 ng/well hepcidin (BAP070-hum05 [14]): 0.625 | OD450 at 3.704 ng/well hepcidin (BAP070-hum05 [14]): 0.273 | OD450 at 11.111 ng/well hepcidin (BAP070-hum05 [14]): 0.125 | OD450 at 33.333 ng/well hepcidin (BAP070-hum05 [14]): 0.0505 | OD450 at 100.000 ng/well hepcidin (BAP070-hum05 [14]): 0.0195 | OD450 at 0.000 ng/well hepcidin (BAP070-hum06 [15]): 1.11 | OD450 at 0.137 ng/well hepcidin (BAP070-hum06 [15]): 1.1 | OD450 at 0.412 ng/well hepcidin (BAP070-hum06 [15]): 0.961 | OD450 at 1.235 ng/well hepcidin (BAP070-hum06 [15]): 0.72 | OD450 at 3.704 ng/well hepcidin (BAP070-hum06 [15]): 0.369 | OD450 at 11.111 ng/well hepcidin (BAP070-hum06 [15]): 0.154 | OD450 at 33.333 ng/well hepcidin (BAP070-hum06 [15]): 0.0599 | OD450 at 100.000 ng/well hepcidin (BAP070-hum06 [15]): 0.0238 | EC50 (BAP070-hum01 [16]): 0.0237 µg/mL
